Laboratory results taken from publication PMC2758704, “Human Papillomavirus-16 E7 Interacts with Glutathione S-Transferase P1 and Enhances Its Role in Cell Survival” (PLoS ONE, 2009).
Ends that are not written are not given here.

Biological target: T1, N-6His-GSTP1 recombinant protein (human, UniProt P09211 1-210)
T1 construct: human GSTP1, ORF made by RT-PCR from HaCaT RNA, cloned through pDONR201 into pDEST17; The printed forward primer begins at the codons for Pro-Pro-Tyr-Thr (residue 2, without the first Met) and the reverse primer holds the stop codon; Gateway attB1 linker residues lie between the His tag and GSTP1; also called recombinant GSTP1; not shown: His6, N-terminal, kept
Assay: peptide or protein array; PepSets: 30 rod-bound 12-mers of HPV-16 E7 with a 9 amino acid overlap; recombinant GSTP1 captured by each rod detected by an immunoenzyme assay with an anti-GSTP1 polyclonal antibody
Conditions: both partners purified

T1 sequence (P09211 whole entry): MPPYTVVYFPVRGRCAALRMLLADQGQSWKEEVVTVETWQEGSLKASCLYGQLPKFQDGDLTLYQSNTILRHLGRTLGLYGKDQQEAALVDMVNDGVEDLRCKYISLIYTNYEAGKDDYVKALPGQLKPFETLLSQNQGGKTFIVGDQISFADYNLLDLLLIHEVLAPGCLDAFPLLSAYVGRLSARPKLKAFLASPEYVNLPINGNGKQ

Binder	binding result
RAHYNIVTFCCK (cysteine pairing not given here; also: bound to a polypropylene rod, residues 49-60 of the E7 oncoprotein of HPV-16; also called peptide 49–60; the 49–60 12-mer; source: synthetic peptide, on polypropylene rods (PepSets, Mimotopes)) [HPV-16 E7 12-mer peptide aa 49–60]	binds
GIVCPICSQKPG (cysteine pairing not given here; also: bound to a polypropylene rod, residues 88-98 (the C-terminus) of the E7 oncoprotein of HPV-16; a Gly added to the last C-terminal HPV-16 E7 amino acid to complete the 12-mer; The text names the region aa 89–98 in one place and 88–98 in others; also called C-terminal 88–98 peptide; C-terminal portion (aa 89–98); source: synthetic peptide, on polypropylene rods (PepSets, Mimotopes)) [HPV-16 E7 C-terminal 12-mer peptide (30th rod, amino acids 88–99 with an added Gly)]	binds
